Source: the supplement of paper PMC5998384

Assays:
HeLa Kyoto [1] = test: solubility change mitosis vs G1/S (difference of NP-40 vs SDS log2 ratios) (log2 ratio difference); higher = more soluble in mitosis
HeLa Kyoto [2] = test: melting temperature (median over replicates), in situ; higher = more thermally stable
HeLa Kyoto [3] = test: thermal stability score vs G1/S (z-score of summed log2 fold changes over temperatures); higher = more thermally stable than in G1/S
[4] = cell cycle stage: early G1 (4.5 h after nocodazole release)
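Wherever melting temperature (median over replicates), in situ is given: HeLa Kyoto cells synchronized by double thymidine or nocodazole block, proteins quantified by TMT10plex mass spectrometry, three independent biological replicates.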
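Wherever solubility change mitosis vs G1/S (difference of NP-40 vs SDS log2 ratios) is given: synchronized HeLa Kyoto cells (double thymidine block for G1/S, nocodazole release for mitosis), protein amounts in NP-40 versus SDS lysates quantified by mass spectrometry, three biological replicates.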
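Wherever thermal stability score vs G1/S (z-score of summed log2 fold changes over temperatures) is given: synchronized HeLa Kyoto cells, proteins quantified by TMT10plex mass spectrometry, three biological replicates, mitosis taken 0.5 h after nocodazole release, G1/S directly after double thymidine block.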

Sequence of SBF2 (chain, as listed by the source): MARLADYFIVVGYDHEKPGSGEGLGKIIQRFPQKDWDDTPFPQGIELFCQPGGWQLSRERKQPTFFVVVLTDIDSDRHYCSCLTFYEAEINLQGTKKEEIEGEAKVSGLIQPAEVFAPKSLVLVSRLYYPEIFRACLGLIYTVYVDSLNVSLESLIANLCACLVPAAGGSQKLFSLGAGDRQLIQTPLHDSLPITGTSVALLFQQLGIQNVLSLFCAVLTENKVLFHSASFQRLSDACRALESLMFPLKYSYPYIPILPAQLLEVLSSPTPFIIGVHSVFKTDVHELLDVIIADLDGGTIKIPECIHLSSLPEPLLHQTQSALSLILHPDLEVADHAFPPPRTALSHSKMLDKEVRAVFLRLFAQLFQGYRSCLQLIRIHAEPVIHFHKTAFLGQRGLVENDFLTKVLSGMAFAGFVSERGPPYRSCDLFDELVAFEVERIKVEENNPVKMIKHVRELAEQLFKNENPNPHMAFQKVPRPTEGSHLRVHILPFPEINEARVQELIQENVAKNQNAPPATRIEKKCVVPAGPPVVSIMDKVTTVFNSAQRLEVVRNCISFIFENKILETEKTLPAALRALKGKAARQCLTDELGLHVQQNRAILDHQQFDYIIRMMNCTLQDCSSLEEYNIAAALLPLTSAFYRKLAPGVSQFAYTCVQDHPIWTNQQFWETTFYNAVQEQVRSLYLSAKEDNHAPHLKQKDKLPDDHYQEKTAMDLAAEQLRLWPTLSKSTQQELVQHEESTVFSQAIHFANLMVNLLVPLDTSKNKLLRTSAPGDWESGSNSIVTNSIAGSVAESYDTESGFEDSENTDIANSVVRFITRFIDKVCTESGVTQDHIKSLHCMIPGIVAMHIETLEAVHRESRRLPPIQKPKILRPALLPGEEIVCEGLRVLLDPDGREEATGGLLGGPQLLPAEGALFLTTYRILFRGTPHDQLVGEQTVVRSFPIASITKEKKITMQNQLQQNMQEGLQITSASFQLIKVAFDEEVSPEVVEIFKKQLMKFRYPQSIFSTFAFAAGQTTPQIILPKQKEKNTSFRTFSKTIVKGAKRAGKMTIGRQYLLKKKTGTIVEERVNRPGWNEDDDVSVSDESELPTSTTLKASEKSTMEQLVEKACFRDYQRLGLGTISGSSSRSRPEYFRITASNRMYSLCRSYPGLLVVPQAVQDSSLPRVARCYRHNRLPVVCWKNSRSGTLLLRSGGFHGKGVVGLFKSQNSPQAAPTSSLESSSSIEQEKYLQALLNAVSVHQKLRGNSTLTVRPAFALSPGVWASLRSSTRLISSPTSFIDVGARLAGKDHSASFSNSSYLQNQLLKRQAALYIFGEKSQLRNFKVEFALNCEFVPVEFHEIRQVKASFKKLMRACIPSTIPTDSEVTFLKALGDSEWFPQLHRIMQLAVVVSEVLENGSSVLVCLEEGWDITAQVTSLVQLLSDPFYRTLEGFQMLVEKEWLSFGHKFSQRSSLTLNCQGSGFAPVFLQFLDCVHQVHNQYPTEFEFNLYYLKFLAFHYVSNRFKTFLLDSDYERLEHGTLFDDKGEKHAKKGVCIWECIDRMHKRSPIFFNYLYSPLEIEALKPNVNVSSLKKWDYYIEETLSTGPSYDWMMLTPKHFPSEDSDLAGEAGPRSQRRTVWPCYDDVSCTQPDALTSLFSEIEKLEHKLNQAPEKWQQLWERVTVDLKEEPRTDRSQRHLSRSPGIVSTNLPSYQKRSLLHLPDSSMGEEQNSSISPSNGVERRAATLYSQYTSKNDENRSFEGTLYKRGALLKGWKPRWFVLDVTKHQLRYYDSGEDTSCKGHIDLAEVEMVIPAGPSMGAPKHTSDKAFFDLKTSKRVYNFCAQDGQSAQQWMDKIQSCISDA

| Substance | solubility change mitosis (log2) (HeLa Kyoto [1]) | also measured |
| --- | --- | --- |
| ACTR3 | -0.0203 |  |
| STAM2 | -0.173 |  |
| RPL9 | 0.502 |  |
| RPL13A | 0.619 |  |
| PSEN1 | 0.045 |  |
| RPS18 | 0.385 |  |
| RPL19 | 0.873 |  |
| RPS8 | 0.735 |  |
| RPS15A | 0.424 |  |
| JMJD6 | -0.18 |  |
| MRPS24 | -0.0858 |  |
| SLIRP | 0.0681 |  |
| RPL35 | 1.27 |  |
| RPL26L1 | 0.994 |  |
| SNCA | 0.157 |  |
| MRPL2 | 0.0937 |  |
| RPS9 | 0.434 |  |
| RPS13 | 0.484 |  |
| HIST1H4A | 0.331 |  |
| RPS15 | 0.616 |  |
| RPL22 | 0.576 |  |
| MRPL30 | 0.00936 |  |
| UBA52 | 0.558 |  |
| EEF2 | -0.164 |  |
| TPRG1L | -0.205 |  |
| RPL18 | 0.797 |  |
| MRPL28 | 0.00818 |  |

| Substance | solubility change mitosis (log2) (HeLa Kyoto [1]) | also measured |
| --- | --- | --- |
| CTR9 | -0.0445 |  |
| DTX3L | 0.0969 |  |
| RPS16 | 0.511 |  |
| BPTF | -0.0311 |  |
| MRPS23 | 0.188 |  |
| MRPS11 | -0.0467 |  |
| DNPEP | -0.0236 |  |
| BTF3 | 0.172 |  |
| MRPL20 | -0.0687 |  |
| VPS29 | -0.224 |  |
| MRPS6 | 0.0185 |  |
| TFRC | -0.13 |  |
| RPS2 | 0.389 |  |
| MTAEETVNVKEVEIIKLILDFLNSKKLHISMLALEKESGVINGLFSDDMLFLRQLILDGQWDEVLQFIQPLECMEKFDKKRFRYIILKQKFLEALCVNNAMSAEDEPQHLEFTMQEAVQCLHALEEYCPSKDDYSKLCLLLTLPRLTNHAEFKDWNPSTARVHCFEEACVMVAEFIPADRKLSEAGFKASNNRLFQLVMKGLLYECCVEFCQSKATGEEITESEVLLGIDLLCGNGCDDLDLSLLSWLQNLPSSVFSCAFEQKMLNIHVDKLLKPTKAAYADLLTPLISKLSPYPSSPMRRPQSADAYMTRSLNPALDGLTCGLTSHDKRISDLGNKTSPMSHSFANFHYPGVQNLSRSLMLENTECHSIYEESPERDTPVDAQRPIGSEILGQSSVSEKEPANGAQNPGPAKQEKNELRDSTEQFQEYYRQRLRYQQHLEQKEQQRQIYQQMLLEGGVNQEDGPDQQQNLTEQFLNRSIQKLGELNIGMDGLGNEVSALNQQCNGSKGNGSNGSSVTSFTTPPQDSSQRLTHDASNIHTSTPRNPGSTNHIPFLEESPCGSQISSEHSVIKPPLGDSPGSLSRSKGEEDDKSKKQFVCINILEDTQAVRAVAFHPAGGLYAVGSNSKTLRVCAYPDVIDPSAHETPKQPVVRFKRNKHHKGSIYCVAWSPCGQLLATGSNDKYVKVLPFNAETCNATGPDLEFSMHDGTIRDLAFMEGPESGGAILISAGAGDCNIYTTDCQRGQGLHALSGHTGHILALYTWSGWMIASGSQDKTVRFWDLRVPSCVRVVGTTFHGTGSAVASVAVDPSGRLLATGQEDSSCMLYDIRGGRMVQSYHPHSSDVRSVRFSPGAHYLLTGSYDMKIKVTDLQGDLTKQLPIMVVGEHKDKVIQCRWHTQDLSFLSSSADRTVTLWTYNG [WDR47] |  | melting temperature (HeLa Kyoto [2]; cell cycle stage: G1/S): 54.4 °C; melting temperature (HeLa Kyoto [2]; cell cycle stage: mitosis): 52.6 °C; thermal stability score (HeLa Kyoto [3]; [4]): -2.39; thermal stability score (HeLa Kyoto [3]; cell cycle stage: mitosis): -1.92 |
| SCFD1 | -0.0937 |  |
| RPL3 | 0.667 |  |
| MRPS10 | -0.0122 |  |
| MRPL33 | -0.0245 |  |
| RPL7A | 0.753 |  |
| RPS28 | 0.73 |  |
| CDK2 | -0.211 |  |
| PRKACB | -0.134 |  |
| MRPL1 | -0.101 |  |
| MRPS31 | -0.0986 |  |
| MAYQLYRNTTLGNSLQESLDELIQSQQITPQLALQVLLQFDKAINAALAQRVRNRVNFRGSLNTYRFCDNVWTFVLNDVEFREVTELIKVDKVKIVACDGKNTGSNTTE [GTF2A2] |  | melting temperature (HeLa Kyoto [2]; cell cycle stage: G1/S): 58.6 °C; melting temperature (HeLa Kyoto [2]; cell cycle stage: mitosis): 53.4 °C; thermal stability score (HeLa Kyoto [3]; [4]): 0.419; thermal stability score (HeLa Kyoto [3]; cell cycle stage: mitosis): 0.557 |
| TIMP1 |  | melting temperature (HeLa Kyoto [2]; cell cycle stage: G1/S): 54.8 °C; melting temperature (HeLa Kyoto [2]; cell cycle stage: mitosis): 54.5 °C; thermal stability score (HeLa Kyoto [3]; [4]): 0.849; thermal stability score (HeLa Kyoto [3]; cell cycle stage: mitosis): -1.24 |
| MRPS21 | 0.0482 |  |

| Substance | solubility change mitosis (log2) (HeLa Kyoto [1]) | also measured |
| --- | --- | --- |
| MRPS35 | 0.0565 |  |
| MRPL43 | 0.445 |  |
| RPL5 | 0.442 |  |
| MMKLKSNQTRTYDGDGYKKRAACLCFRSESEEEVLLVSSSRHPDRWIVPGGGMEPEEEPSVAAVREVCEEAGVKGTLGRLVGIFENQERKHRTYVYVLIVTEVLEDWEDSVNIGRKREWFKIEDAIKVLQYHKPVQASYFETLRQGYSANNGTPVVATTYSVSAQSSMSGIR [NUDT3] |  | melting temperature (HeLa Kyoto [2]; cell cycle stage: G1/S): 53.4 °C; melting temperature (HeLa Kyoto [2]; cell cycle stage: mitosis): 54.7 °C; thermal stability score (HeLa Kyoto [3]; [4]): -1.86; thermal stability score (HeLa Kyoto [3]; cell cycle stage: mitosis): -1.36 |
| MATRRLTDAFLLLRNNSIQNRQLLAEQVSSHITSSPLHSRSIAAELDELADDRMALVSGISLDPEAAIGVTKRPPPKWVDGVDEIQYDVGRIKQKMKELASLHDKHLNRPTLDDSSEEEHAIEITTQEITQLFHRCQRAVQALPSRARACSEQEGRLLGNVVASLAQALQELSTSFRHAQSGYLKRMKNREERSQHFFDTSVPLMDDGDDNTLYHRGFTEDQLVLVEQNTLMVEEREREIRQIVQSISDLNEIFRDLGAMIVEQGTVLDRIDYNVEQSCIKTEDGLKQLHKAEQYQKKNRKMLVILILFVIIIVLIVVLVGVKSR [STX16] |  | melting temperature (HeLa Kyoto [2]; cell cycle stage: G1/S): 51 °C; melting temperature (HeLa Kyoto [2]; cell cycle stage: mitosis): 49.8 °C; thermal stability score (HeLa Kyoto [3]; [4]): -1.14; thermal stability score (HeLa Kyoto [3]; cell cycle stage: mitosis): -0.879 |
| WDR5 | -0.102 |  |
| FAM175B | -0.114 |  |
| MEKWYLMTVVVLIGLTVRWTVSLNSYSGAGKPPMFGDYEAQRHWQEITFNLPVKQWYFNSSDNNLQYWGLDYPPLTAYHSLLCAYVAKFINPDWIALHTSRGYESQAHKLFMRTTVLIADLLIYIPAVVLYCCCLKEISTKKKIANALCILLYPGLILIDYGHFQYNSVSLGFALWGVLGISCDCDLLGSLAFCLAINYKQMELYHALPFFCFLLGKCFKKGLKGKGFVLLVKLACIVVASFVLCWLPFFTEREQTLQVLRRLFPVDRGLFEDKVANIWCSFNVFLKIKDILPRHIQLIMSFCSTFLSLLPACIKLILQPSSKGFKFTLVSCALSFFLFSFQVHEKSILLVSLPVCLVLSEIPFMSTWFLLVSTFSMLPLLLKDELLMPSVVTTMAFFIACVTSFSIFEKTSEEELQLKSFSISVRKYLPCFTFLSRIIQYLFLISVITMVLLTLMTVTLDPPQKLPDLFSVLVCFVSCLNFLFFLVYFNIIIMWDSKSGRNQKKIS [ALG6] |  | melting temperature (HeLa Kyoto [2]; cell cycle stage: G1/S): 54.2 °C; melting temperature (HeLa Kyoto [2]; cell cycle stage: mitosis): 54.3 °C; thermal stability score (HeLa Kyoto [3]; [4]): 0.428; thermal stability score (HeLa Kyoto [3]; cell cycle stage: mitosis): -1.17 |
| LDHA | -0.0758 |  |
| FSCN1 | -0.135 |  |
| MRPS22 | -0.0527 |  |
| RPL12 | 0.659 |  |
| MARAAPLLAALTALLAAAAAGGDAPPGKIAVVGAGIGGSAVAHFLQQHFGPRVQIDVYEKGTVGGRLATISVNKQHYESGAASFHSLSLHMQDFVKLLGLRHRREVVGRSAIFGGEHFMLEETDWYLLNLFRLWWHYGISFLRLQMWVEEVMEKFMRIYKYQAHGYAFSGVEELLYSLGESTFVNMTQHSVAESLLQVGVTQRFIDDVVSAVLRASYGQSAAMPAFAGAMSLAGAQGSLWSVEGGNKLVCSGLLKLTKANVIHATVTSVTLHSTEGKALYQVAYENEVGNSSDFYDIVVIATPLHLDNSSSNLTFAGFHPPIDDVQGSFQPTVVSLVHGYLNSSYFGFPDPKLFPFANILTTDFPSFFCTLDNICPVNISASFRRKQPQEAAVWRVQSPKPLFRTQLKTLFRSYYSVQTAEWQAHPLYGSRPTLPRFALHDQLFYLNALEWAASSVEVMAVAAKNVALLAYNRWYQDLDKIDQKDLMHKVKTEL [PCYOX1L] |  | melting temperature (HeLa Kyoto [2]; cell cycle stage: G1/S): 56.6 °C; melting temperature (HeLa Kyoto [2]; cell cycle stage: mitosis): 56.2 °C; thermal stability score (HeLa Kyoto [3]; [4]): 0.689; thermal stability score (HeLa Kyoto [3]; cell cycle stage: mitosis): 1.38 |
| SBF2 |  | melting temperature (HeLa Kyoto [2]; cell cycle stage: mitosis): 52.3 °C; thermal stability score (HeLa Kyoto [3]; [4]): -0.139; thermal stability score (HeLa Kyoto [3]; cell cycle stage: mitosis): 0.0344 |
| RPL21 | 0.856 |  |
| MAAPAGGGGSAVSVLAPNGRRHTVKVTPSTVLLQVLEDTCRRQDFNPCEYDLKFQRSVLDLSLQWRFANLPNNAKLEMVPASRSREGPENMVRIALQLDDGSRLQDSFCSGQTLWELLSHFPQIRECLQHPGGATPVCVYTRDEVTGEAALRGTTLQSLGLTGGSATIRFVMKCYDPVGKTPGSLGSSASAGQAAASAPLPLESGELSRGDLSRPEDADTSGPCCEHTQEKQSTRAPAAAPFVPFSGGGQRLGGPPGPTRPLTSSSAKLPKSLSSPGGPSKPKKSKSGQDPQQEQEQERERDPQQEQERERPVDREPVDREPVVCHPDLEERLQAWPAELPDEFFELTVDDVRRRLAQLKSERKRLEEAPLVTKAFREAQIKEKLERYPKVALRVLFPDRYVLQGFFRPSETVGDLRDFVRSHLGNPELSFYLFITPPKTVLDDHTQTLFQANLFPAALVHLGAEEPAGVYLEPGLLEHAISPSAADVLVARYMSRAAGSPSPLPAPDPAPKSEPAAEEGALVPPEPIPGTAQPVKRSLGKVPKWLKLPASKR [ASPSCR1] |  | melting temperature (HeLa Kyoto [2]; cell cycle stage: G1/S): 52.2 °C; thermal stability score (HeLa Kyoto [3]; [4]): -0.292; thermal stability score (HeLa Kyoto [3]; cell cycle stage: mitosis): -0.934 |
| RPS29 | 0.655 |  |
| MRPL41 | 0.232 |  |
| NAA40 | 0.145 |  |
| MFTSEKGVVEEWLSEFKTLPETSLPNYATNLKDKSSLVSSLYKVIQEPQSELLEPVCHQLFEFYRSGEEQLLQFTLQFLPELIWCYLAVSASRNVHSSGCIEALLLGVYNLEIVDKQGHTKVLSFTIPSLSKPSVYHEPSSIGSMALTESALSQHGLSKVVYSGPHPQREMLTAQNRFEVLTFLLLCYNAALTYMPSVSLQSLCQICSRICVCGYPRQHVRKYKGISSRIPVSSGFMVQMLTGIYFAFYNGEWDLAQKALDDIIYRAQLELYPEPLLVANAIKASLPHGPMKSNKEGTRCIQVEITPTSSRISRNAVTSMSIRGHRWKRHGNTELTGQEELMEISEVDEGFYSRAASSTSQSGLSNSSHNCSNKPSIGKNHRRSGGSKTGGKEKETTGESCKDHFARKQTQRAQSENLELLSLKRLTLTTSQSLPKPSSHGLAKTAATVFSKSFEQVSGVTVPHNPSSAVGCGAGTDANRFSACSLQEEKLIYVSERTELPMKHQSGQQRPPSISITLSTD [FAM126A] |  | melting temperature (HeLa Kyoto [2]; cell cycle stage: mitosis): 50.9 °C; thermal stability score (HeLa Kyoto [3]; [4]): 0.141; thermal stability score (HeLa Kyoto [3]; cell cycle stage: mitosis): 0.0377 |
| ARPC2 | -0.0639 |  |
| SUPT6H | 0.0526 |  |
| MRPL32 | 0.35 |  |
| MRPL9 | -0.0572 |  |
| MRPL13 | -0.0691 |  |
